# Measured values taken from patent publication US20230340091A1 (MOR RESEARCH APPLICATIONS, published 2023).
# Biological target: recombinant human alpha-synuclein preformed fibrils (PFF) (human, UniProt P37840 1-140)
# Assay: ELISA on coated alpha-synuclein PFF, Fab in serial dilution
# Experimental: A standard ELISA assay was performed using alpha-synuclein PFFs as the coating protein.
row,binding result,Binder
1,no binding,"PMS209 (Fab 2), Fab format (Fab, V domains shown) VH: QVQLQESGPGLVKPSETLSLTCTVSGGSISSSSYYWGWIRQPPGKGLEWIGSIYYSGSTYYNPSLKSRVTISVDTSKNQFSLKLSSVTAADTAVYYCARLRRYDSSGFFFDYWGQGTLVTVSS VL: SVVTQPPSVSAAPGQKVTISCSGSSSNIGNNYVSWHQQLPGTAPKLLIYDNDRRPSGIPDRFSGSKSGTSATLAITGLQTGDEADYYCGTWDSSLSGGVFGGGTKVTVLS"
2,no binding,"PMS213 (Fab 6), Fab format (Fab, V domains shown, Fab expressed in E. coli with His and myc tags on the heavy chain) VH: QVQLVQSGPGLVKPSETLSLICTVSGGSISSSNYYWGWVRQPPGKGLEWIGTIYYSGTTYYNPSLKSRVTISVDTSKNQFSLELSSVTAADTAVYYCARLGRGSAFDIWGQGTMVTVSS VL: SVVTQPPSLSAAPGQSITISCSGGGSNIGRNSVSWHRQFPGAAPELLAFDTFRRPSGVPDRFSGSKSGSSATLVITGLQTGDEADYYCGTWDNSLDSGVFGGGTKVTVLR"
